# Experimental data as given in patent US20120076728A1 (University of California, published 2012).
# No end group written: not given here.
# T1: carcinoembryonic antigen (CEA), form not stated (UniProt P06731 35-685, limits assumed)
# T1 sequence (looked up): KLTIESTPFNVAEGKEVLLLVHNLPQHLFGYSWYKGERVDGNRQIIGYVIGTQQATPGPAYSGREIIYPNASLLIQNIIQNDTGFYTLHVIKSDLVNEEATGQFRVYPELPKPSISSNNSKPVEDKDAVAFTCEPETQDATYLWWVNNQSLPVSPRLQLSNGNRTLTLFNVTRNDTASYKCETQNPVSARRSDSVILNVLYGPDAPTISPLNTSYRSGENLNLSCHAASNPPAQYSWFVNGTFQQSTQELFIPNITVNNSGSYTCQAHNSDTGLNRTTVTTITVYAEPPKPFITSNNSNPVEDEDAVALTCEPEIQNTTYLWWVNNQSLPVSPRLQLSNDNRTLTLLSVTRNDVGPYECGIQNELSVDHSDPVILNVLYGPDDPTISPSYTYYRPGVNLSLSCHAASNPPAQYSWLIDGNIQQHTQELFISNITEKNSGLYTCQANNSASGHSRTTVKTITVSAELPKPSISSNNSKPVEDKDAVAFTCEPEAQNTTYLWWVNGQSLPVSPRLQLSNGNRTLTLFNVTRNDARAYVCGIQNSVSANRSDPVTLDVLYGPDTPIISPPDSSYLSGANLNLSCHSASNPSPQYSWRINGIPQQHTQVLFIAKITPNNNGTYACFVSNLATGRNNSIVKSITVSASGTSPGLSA
# Assays:
# [1] = target: carcinoembryonic antigen (CEA) expressed by LS174T human colon carcinoma tumors (human (LS174T human colon carcinoma cells)) (UniProt P06731); experiment: cell-based or functional assay
# [2] = target: T1, carcinoembryonic antigen (CEA), form …; experiment: not stated; given as a property of the peptide
CEA positive-to-negative tumor uptake ratio at 51 h [1],Kd [2] [µM],Molecule
13,–,anti-CEA T84.66 diabody (Db)
–,0.16,"SDWVCEFIKSQWFCNVLASG-HyNic (also: cyclic, bond type and places not given here, also called anti-CEA peptide; CEA specific peptide) [CEA specific, cyclic peptide SDWVCEFIKSQWFCNVLASG]"
